Paper PMC4598023 (PLoS ONE, 2015)
Bridges are numbered along the chain shown (N, C = ends). Where no end group is shown, it is not given here.

What was measured:
[1] = target: T1, Fluorescein-Labelled Murine Amylin (Mus musculus, UniProt P12968); test: Isothermal binding assay, fluorescence anisotropy (amylin self-assembly); settings: PBS pH 7.4, 25°C; for Anisotropy: 50 nM labelled murine amylin, mean of five measurements
T1 sequence (P12968 38-74 limits assumed): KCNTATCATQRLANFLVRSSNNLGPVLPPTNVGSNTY
Method: (§1) The proteins (CTR, RAMP and murine amylin) were labeled with fluorescein isothiocyanate (FITC; Sigma-Aldrich; 0.2 mM final concentration, from stock in DMSO at 5 mM freshly prepared) in 20 mM Na2HPO4, 300 mM NaCl, pH 7.0, for 60 min at 25°C protected from light. The reaction was quenched by adding an excess of Tris-HCl. The free fluorescein was removed by chromatography with a Sephadex G25 desalting column (GE Healthcare, Brazil). The labeling efficiency, final yield and protein quantification were calculated as described elsewhere. The labeling efficiency was below 1 mol FITC:1 mol protein for all labeling procedures. Labeled proteins were stored until use protected from light at -20°C for no longer than 3 months.
(§2) The fluorescence measurements were conducted in a Spectramax M5 (Molecular Devices) microplate reader, with excitation and emission set at 480 nm and 520 nm respectively, with cut-off filter 515 nm. The results represent the mean and the standard error of the mean (SEM) of five measurements. Binding data analysis was performed with SigmaPlot 12.5 (Systat Software, Inc., CA, USA).
(§3) Fig 4 Amylin self-assembly and interaction with co-receptors. […] Assays were conducted in PBS, pH 7.4, 25°C, in the presence of 50 nM FITC-labelled proteins (amylin, CTR–1 or RAMP–3). Ex 480 nm, Em 520 nm, filter 515 nm. The raw data can be found in S2 File.

[2] = target: T2, human receptor-activity modifying protein 3 Extracellular Topological Domain (RAMP3-ETD), fluorescein-labelled (Homo sapiens, UniProt O60896); test: Isothermal binding assay, fluorescence anisotropy, RAMP-3; settings: for Anisotropy: 50 nM labelled RAMP-3, PBS pH 7.4, 25°C, mean of five measurements
T2 construct: RAMP3-ETD; residues 28–117; UNIPROT identifier O60896; His tag (N); thrombin cleavage site (N); made in house; host or cells: E. coli BL21DE3pLys
T2 sequence (O60896 28-117): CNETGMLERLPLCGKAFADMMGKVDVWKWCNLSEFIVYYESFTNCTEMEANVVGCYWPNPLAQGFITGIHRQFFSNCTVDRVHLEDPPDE
Description: The human receptor-activity modifying protein 3 Extracellular Topological Domain (RAMP3-ETD; residues 28–117; UNIPROT identifier O60896; Sequence in S1 File) was obtained by heterologous production in E. coli and further purified from inclusion bodies. The synthetic DNA sequence encoding the RAMP3-ETD of RAMP3 was cloned into bacterial protein expression vector pET28b (Novagen/EMD Millipore) from the synthetic gene using NdeI and EcoRI. The sequence and identity of the gene in the pET28b-RAMP3 construct was confirmed with DNA sequencing. The gene synthesis, cloning and sequencing services were provided by GenScript Corporation (Piscataway, NJ, USA).
RAMP3 was produced and purified as described previously for the homologous protein RAMP2 [56]. The RAMP3-ETD was produced as a fusion protein containing an N-terminal histidine tag and a thrombin protease cleavage site, by heterologous expression in E. coli BL21DE3pLys (1 mM IPTG, 37°C, 3 h). […] The purified RAMP3-ETD was refolded by rapid dilution into cold buffer 50 mM sodium phosphate buffer (pH 8.3) containing 1 M arginine hydrochloride, 5 mM reduced glutathione, 1 mM oxidized glutathione, and 1 mM EDTA and left stand for 24 h at 4°C. After refolding, RAMP3-ETD was dialyzed, concentrated in AMICON (Millipore, Brazil), and stored in 20 mM sodium phosphate buffer and 500 mM NaCl, pH 7.0, in liquid nitrogen until use. Purity was over 95% as judged by SDS-PAGE, routine size-exclusion chomatography and MALDI-ToF-MS. The purified RAMP3 was quantified by absorbance at 280 nm, using 21,345 M^-1cm^−1 as extinction coefficient.
as §1, §2, §3

MCF–7 cells = test: cAMP production in MCF–7 cells following stimulation with amylin and PEGylated amylin; format: cell-based, human; settings: for cAMP: 37°C
Method: The assay was conducted by the CRO Eurofins | Cerep Panlabs, using the cAMP HiRange assay kit (Cisbio, 62AM6PE). According to the company, the assay was performed in 96 well half area plates, in a total reaction volume of 20 μl/well, with a total of 3.000 cells in suspension (after optimization for optimal seeding density and format: adherent or suspension), freshly thawed. Cells were incubated at 37°C in a humidified atmosphere with 5% (v/v) CO2. […] Following the incubation, cells were lysed and the cAMP quantified by using the cAMP HiRange assay kit (Cisbio, 62AM6PE) according to the manufacturer instructions. […] After 60 minutes incubation at room temperature, fluorescence was measured (excitation at 337 nm, emission at 620 vs. 665 nm), and the cAMP concentration was determined by dividing the signal at 665 nm by that at 620 nm and comparing with the cAMP calibration curve. Buffer was used as negative control and the results were corrected accordingly. Results are expressed as mean ± standard error (n = 2) of the resulting cAMP concentrations in nM. EC50 values for the agonist-induced cAMP production was calculated by adjusting data with a logist 4 parameter function (with SigmaPlot, Jandel Sci).
MCF–7 cells endogenously express human amylin receptor CTR1 and CTR2 [72, 73]. Stimulation of the receptor with amylin results in the production of cAMP (Fig 5).

PEGylated human amylin: human amylin monoconjugated at the N-terminal Lys1 region with 5 kDa methoxyl polyethylene glycol succinimidyl carbonate (mPEGsc5k) (KCNTATCATQRLANFLVHSSNNFGAILSSTNVGSNTY-NH2; disulfide 2-7; also: one mPEG 5 kDa (mPEGsc5k) on a Lys1 amino group)
self-assembly with amylin (in words) ([1]; fluorescence anisotropy, 50 nM FITC-labelled protein): PEGylation did not abolish the assembly
Anisotropy ([1]; ligand 0.0492 µM): 0.0707
Anisotropy ([1]; ligand 0.1229 µM): 0.0637
Anisotropy ([1]; ligand 0.3072 µM): 0.0575
Anisotropy ([1]; ligand 0.768 µM): 0.0698
Anisotropy ([1]; ligand 1.92 µM): 0.0836
Anisotropy ([1]; ligand 4.8 µM): 0.232
Anisotropy ([1]; ligand 12 µM): 0.2936
Anisotropy ([1]; ligand 30 µM): 0.27
binding to coreceptor RAMP3 (in words) ([2]; fluorescence anisotropy, PBS pH 7.4, 25°C, 50 nM FITC-labelled protein): PEGylation did not abolish the assembly
Anisotropy ([2]; ligand 0.0492 µM): 0.0481
Anisotropy ([2]; ligand 0.1229 µM): 0.0421
Anisotropy ([2]; ligand 0.3072 µM): 0.0449
Anisotropy ([2]; ligand 0.768 µM): 0.0486
Anisotropy ([2]; ligand 1.92 µM): 0.0614
Anisotropy ([2]; ligand 4.8 µM): 0.1188
Anisotropy ([2]; ligand 12 µM): 0.2199
Anisotropy ([2]; ligand 30 µM): 0.1286
cAMP (MCF–7 cells; 1.00E-05 Molar, replicate 1, 30 min): 53.95 nM
cAMP (MCF–7 cells; 1.00E-05 Molar, replicate 2, 30 min): 47.73 nM
cAMP (MCF–7 cells; 1.00E-06 Molar, replicate 1, 30 min): 47.85 nM
cAMP (MCF–7 cells; 1.00E-06 Molar, replicate 2, 30 min): 54.26 nM
cAMP (MCF–7 cells; 1.00E-07 Molar, replicate 1, 30 min): 38.3 nM
cAMP (MCF–7 cells; 1.00E-07 Molar, replicate 2, 30 min): 36.06 nM
cAMP (MCF–7 cells; 1.00E-08 Molar, replicate 1, 30 min): 17.13 nM
cAMP (MCF–7 cells; 1.00E-08 Molar, replicate 2, 30 min): 22.08 nM
cAMP (MCF–7 cells; 1.00E-09 Molar, replicate 1, 30 min): 5.54 nM
cAMP (MCF–7 cells; 1.00E-09 Molar, replicate 2, 30 min): 6.29 nM
cAMP (MCF–7 cells; 1.00E-10 Molar, replicate 1, 30 min): 3.86 nM
cAMP (MCF–7 cells; 1.00E-10 Molar, replicate 2, 30 min): 4.59 nM
cAMP (MCF–7 cells; 1.00E-11 Molar, replicate 1, 30 min): 4.14 nM
cAMP (MCF–7 cells; 1.00E-11 Molar, replicate 2, 30 min): 3.71 nM
cAMP (MCF–7 cells; 1.00E-12 Molar, replicate 1, 30 min): 4.83 nM
cAMP (MCF–7 cells; 1.00E-12 Molar, replicate 2, 30 min): 5.61 nM
EC50 (MCF–7 cells; 30 min 37°C, HBSS/HEPES pH 7.4, 500 μM IBMX, cAMP HiRange kit, 4 parameter logistic fit, n = 2, done by CRO): 0.0308 ± 0.0067 µM
